Consider 2 molecules from publication PMC5507911, “Beyond the Debye length in high ionic strength solution: direct protein detection with field-effect transistors (FETs) in human serum”.

The target in series [1] is HIV-1 reverse transcriptase (HIV-1 RT) (HIV-1, UniProt P04585;P04585 588-1147;588-1027). The series can be described thus: EDL FET (AlGaN/GaN HEMT) biosensor; 1X PBS with 1% BSA; 1 fM-10 pM RT; current gain decreases with concentration; 1X PBS with 1% BSA (or undiluted human serum for CRP), 5 min incubation for HIV-1 RT, no washing; Vd 2 V, Vg pulse 0 to 0.5 V (HIV-1 RT); pH and temperature not stated. The following applies: copies: 1;1.

The next series has as its target T1, C-reactive protein (CRP) (UniProt P02741 19-224).
T1 sequence: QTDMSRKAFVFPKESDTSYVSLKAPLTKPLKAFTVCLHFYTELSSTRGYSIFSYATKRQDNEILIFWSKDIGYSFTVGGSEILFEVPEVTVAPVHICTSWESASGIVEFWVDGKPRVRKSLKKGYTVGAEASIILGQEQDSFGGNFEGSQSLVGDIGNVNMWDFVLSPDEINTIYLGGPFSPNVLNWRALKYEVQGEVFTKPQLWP
Nature of the series: EDL FET (AlGaN/GaN HEMT) biosensor; 1X PBS with 1% BSA; 1 fM-100 nM CRP; current gain increases with concentration; 1X PBS with 1% BSA (or undiluted human serum for CRP), 5 min incubation for HIV-1 RT, no washing; Vd 2 V, Vg pulse 0 to 0.5 V (HIV-1 RT); pH and temperature not stated. Conditions: chain copies: 5.

The target in series [2] is T2, C-reactive protein (CRP) in clinical serum (human, UniProt P02741 19-224).
T2 sequence: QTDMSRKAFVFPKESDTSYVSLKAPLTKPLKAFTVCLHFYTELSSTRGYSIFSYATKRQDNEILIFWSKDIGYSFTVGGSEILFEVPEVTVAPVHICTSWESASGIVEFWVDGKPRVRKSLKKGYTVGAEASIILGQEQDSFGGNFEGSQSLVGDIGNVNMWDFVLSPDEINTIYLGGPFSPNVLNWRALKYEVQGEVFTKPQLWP
Nature of the series: EDL FET (AlGaN/GaN HEMT) biosensor; undiluted human sera; 0.34-23.2 mg/L CRP; 1X PBS with 1% BSA (or undiluted human serum for CRP), 5 min incubation for HIV-1 RT, no washing; Vd 2 V, Vg pulse 0 to 0.5 V (HIV-1 RT); pH and temperature not stated. Conditions: protein: native; chain copies: 5.

As for TTTTTTTATACGTGAGCGTGCTGTCCCCTAAAGGTGATACGTCAGGGG (ssDNA, 5' thiol (SH)) [HIV-1 RT aptamer], the binding result in series [1] is on record as “binds”.

B1: CRP aptamer (ssDNA)
DNA: GGCAGGAAGACAAACACGATGGGGGGGTATGATTTGATGTGGTTGTTGCATGATCGTGGTCTGTGGTGCTGT
modifications: 5' thiol (SH)
Consider B1, for which the binding result (in the series with C-reactive protein (CRP); in series [2]) was “binds” in each case.
